US20180251563A1

target: KIR-Fc; assay: phage ELISA, target-Fc against non-specific control

ELISA ratio (target to background)	Binder
4.24	SEQ ID NO 36 (designed binder) MGSWYEFYNRLYAIEIRLYALGGSEAELAAFEKEIAAFESELQAYKGKGNPEVERLRVRAAKIRVILQAYRHN
8.4	SEQ ID NO 35 (designed binder) MGSWSEFYNRLDAIESRLLALGGSEAELALFEIQIARFEKVLQAYKGKGNPEVEALRGEARAIFAELYAYRHN
4.17	SEQ ID NO 37 (designed binder) MGSWLWFKIFLAEIKYFLEALGGSEAELAAFDFEIHAFHVELFAYKGKGNPEVEVLREVAAEIRWDLQAYRHN
